Results: the supplement of paper PMC7877785
± gives the uncertainty stated by the source.

Assay: self-splicing fitness, log relative to wild type (ln ratio); higher = more splicing; Tetrahymena group I intron in knt gene, E. coli kanamycin selection, DiMSum; sequences stand for … in CUCUCU…GGAGGGAAAAGUUAUCAGGCAUGCACCUGGUAGCUAGUCUUUAAACCAAUAGAUUGCAUCGGUUUAAAAGGCAAGACCGUCAAAUUGCGGGAAAGGGGUCAACAGCCGUUCAGUACCAAGUCUCAGGGGAAACUUUGAGAUGGCCUUGCAAAGGGUAUGGUAAUAAGCUGACGGACAUGGUCCUAACCACGCAGCCAAGUCCUAAGUCAACAGAUCUUCUGUUGAUAUGGAUGCAGUUCACAGACUAAAUGUCGGUCGGGGAAGAUGUAUUCUUCUCAUAAGAUAUAGUCGGACCUCUCCUUAAUGGGAGCUAGCGGAUGAAGUGAUGCAACACUGGAGCCGCUGGGAACUAAUUUGUAUGCGAAAGUAUAUUGAUUAGUUUUGGAGUACUCGUGGUCG
Procedure, shortened: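 A randomised library covering all eight P1ex-region intron nucleotides was built with the intron in the knt kanamycin-resistance gene on pET-22b(+) and held in E. coli BL21(DE3). Cells were grown overnight at 37°C or 30°C on LB agar, with or without 25 μg/mL kanamycin, plus 100 μg/mL carbenicillin, 50 μM IPTG and 0.2% rhamnose, and pooled colonies were amplicon-sequenced on an Illumina HiSeq 2500. DiMSum fitness is the error-weighted combination of wild-type-normalised replicate fold changes, kanamycin versus none.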

Sequence	self-splicing fitness (ln) (30 °C)	self-splicing fitness (ln) (37 °C)
GACAAGCAAUAUUACGGAGC	-2.2 ± 0.09	-1.65 ± 0.13
CGAAAGCAAUAUUACGCCGG	-0.615 ± 0.14	0.34 ± 0.17
CAAUAGCAAUAUUACGCCAG	-1.21 ± 0.12	-0.652 ± 0.15
GUCUAGCAAUAUUACGUUCC	-1.14 ± 0.16	-0.649 ± 0.2
AUCAAGCAAUAUUACGCACC	-0.849 ± 0.26	-0.581 ± 0.31
GGAUAGCAAUAUUACGAUUG	-1.55 ± 0.15	-1.44 ± 0.24
GGACAGCAAUAUUACGAUUU	0.167 ± 0.047	0.417 ± 0.065
CCCCAGCAAUAUUACGACUG	-3.32 ± 0.11	-2.97 ± 0.17
CGUCAGCAAUAUUACGAUAG	-0.505 ± 0.054	-0.11 ± 0.074
UCGAAGCAAUAUUACGCGGU	-2.73 ± 0.3	-2.48 ± 0.36
CGCAAGCAAUAUUACGCAAU	-2.94 ± 0.21	-2.14 ± 0.26
GAUCAGCAAUAUUACGGUUU	-0.544 ± 0.074	-0.154 ± 0.098
CCCCAGCAAUAUUACGCCUC	-3.25 ± 0.21	-1.6 ± 0.21
UCUCAGCAAUAUUACGACAC	-4.22 ± 0.26	-3.33 ± 0.33
AAACAGCAAUAUUACGUCAC	-4.1 ± 0.23	-2.59 ± 0.2
CUUGAGCAAUAUUACGCGUG	-2.84 ± 0.18	-0.143 ± 0.11
GACUAGCAAUAUUACGGCAU	-0.26 ± 0.059	0.291 ± 0.081
CGGAAGCAAUAUUACGUUAU	-3.02 ± 0.21	-2.3 ± 0.28
AAGCAGCAAUAUUACGAGGA	-2.82 ± 0.22	-2.16 ± 0.18
AAUAAGCAAUAUUACGUUAU	-2.45 ± 0.13	-1.58 ± 0.16
GAGGAGCAAUAUUACGUGGG	-3.08 ± 0.36	-1.91 ± 0.4
GACUAGCAAUAUUACGACAU	-0.511 ± 0.012	-0.122 ± 0.032
CCCAAGCAAUAUUACGAGAA	-3.57 ± 0.33	-2.87 ± 0.28
UGUGAGCAAUAUUACGGGGA	-2.36 ± 0.29	-1.65 ± 0.33

Sequence	self-splicing fitness (ln) (30 °C)	self-splicing fitness (ln) (37 °C)
GGCCAGCAAUAUUACGGUCC	-3.11 ± 0.21	-2.45 ± 0.37
UCCCAGCAAUAUUACGAUAA	-2.32 ± 0.12	-1.85 ± 0.14
UCUUAGCAAUAUUACGCGGA	–	-2.03 ± 0.41
UCGCAGCAAUAUUACGGCGU	-2.06 ± 0.16	0.251 ± 0.11
ACAUAGCAAUAUUACGGACU	-0.288 ± 0.057	0.36 ± 0.074
AGGGAGCAAUAUUACGCCAG	-1.99 ± 0.24	-2.14 ± 0.34
GUAAAGCAAUAUUACGCCAG	-1.89 ± 0.083	-1.21 ± 0.14
ACUCAGCAAUAUUACGAGAA	-1.51 ± 0.21	-0.586 ± 0.2
CAUCAGCAAUAUUACGUAUU	-2.15 ± 0.097	-1.65 ± 0.11
UACAAGCAAUAUUACGCAAG	-2.81 ± 0.12	-1.6 ± 0.11
GUCGAGCAAUAUUACGUCAU	-1.8 ± 0.12	-1.13 ± 0.1
UAGAAGCAAUAUUACGUCAA	-2.08 ± 0.16	-0.86 ± 0.12
AGUGAGCAAUAUUACGGGGC	–	-2.75 ± 0.29
CAGAAGCAAUAUUACGACGC	-3 ± 0.14	-1.28 ± 0.12
AAAGAGCAAUAUUACGGAUA	-2.75 ± 0.27	-1.92 ± 0.3
CGUCAGCAAUAUUACGUCAA	-2.64 ± 0.11	-1.61 ± 0.1
ACCCAGCAAUAUUACGCUUC	-2.01 ± 0.076	-1 ± 0.095
CGUGAGCAAUAUUACGUGGC	-3.73 ± 0.37	-3.16 ± 0.4
GGUAAGCAAUAUUACGACCU	-1.81 ± 0.18	-1.93 ± 0.24
CAAUAGCAAUAUUACGUCUA	-2.78 ± 0.19	-2.52 ± 0.21
CCGCAGCAAUAUUACGAUUA	-3.03 ± 0.23	-2.72 ± 0.29
CACGAGCAAUAUUACGUCAU	-3.65 ± 0.19	-2.49 ± 0.21
CAGUAGCAAUAUUACGACCC	-3.52 ± 0.44	-0.507 ± 0.34
GACGAGCAAUAUUACGGCAG	-2.04 ± 0.25	-2.51 ± 0.38
